Substitutions are numbered along the chain they refer to.
T1: mouse CD117 (mouse, UniProt P05532)
T1 construct: antigen of the Carterra SPR kinetics; also called murine CD117
T1 sequence (receptor, looked up): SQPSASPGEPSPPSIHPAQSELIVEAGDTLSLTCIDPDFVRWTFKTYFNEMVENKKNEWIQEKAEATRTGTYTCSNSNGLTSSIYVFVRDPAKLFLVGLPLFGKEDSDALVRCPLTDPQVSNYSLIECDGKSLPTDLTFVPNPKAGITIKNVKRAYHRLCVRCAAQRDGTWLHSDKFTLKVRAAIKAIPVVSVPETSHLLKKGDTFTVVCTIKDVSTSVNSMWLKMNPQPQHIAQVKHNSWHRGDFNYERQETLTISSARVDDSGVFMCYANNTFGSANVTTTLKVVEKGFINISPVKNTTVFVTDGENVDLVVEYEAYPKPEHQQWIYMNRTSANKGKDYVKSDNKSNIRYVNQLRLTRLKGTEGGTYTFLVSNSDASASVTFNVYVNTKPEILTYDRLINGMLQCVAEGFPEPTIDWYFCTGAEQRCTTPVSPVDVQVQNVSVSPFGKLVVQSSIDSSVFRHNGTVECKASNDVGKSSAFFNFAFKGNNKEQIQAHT

T2: SIGLEC-5 (limits assumed)
T2 construct: also called OB-BP-2
T2 receptor: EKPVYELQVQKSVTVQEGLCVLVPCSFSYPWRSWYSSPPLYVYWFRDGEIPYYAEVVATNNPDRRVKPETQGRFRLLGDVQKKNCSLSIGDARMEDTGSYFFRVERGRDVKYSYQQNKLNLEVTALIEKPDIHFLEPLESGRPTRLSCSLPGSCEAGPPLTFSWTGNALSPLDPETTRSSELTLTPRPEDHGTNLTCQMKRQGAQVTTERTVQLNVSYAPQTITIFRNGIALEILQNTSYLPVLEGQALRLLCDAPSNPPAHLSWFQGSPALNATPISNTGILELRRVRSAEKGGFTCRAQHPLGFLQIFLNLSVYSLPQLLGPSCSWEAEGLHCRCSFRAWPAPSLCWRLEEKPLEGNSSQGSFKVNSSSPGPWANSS

B1: CD117-12 (antibody, human IgG1, kappa, V domains shown)
VH: EVQLLESGGGLVQPGGSLRLSCAASGITFSSYAMTWVRQAPGKGLEWVSAISSSGTGTYYADSVKGRFTISRDNSKNTLYLQMNSLRAEDTAVYYCARERAPKDFGSSGYSFDYWGQGTLVTVSS
VL: DIQMTQSPSSLSASVGDRVTITCRASQSIDIYLNWYQQKPGKAPKLLIYKASSLQSGVPSRFSGSGSGTDFTLTISSLQPEDFATYYCQQSYTVPITFGGGTKVEIKR
notes: detected with anti-human IgG in FACS
B2: CD117-5 (antibody, human IgG1, kappa, V domains shown)
VH: EVQLLESGGGLVQPGGSLRLSCAASGFIFTNYAMSWVRQAPGKGLEWVSAIGGSGSSTYYADSVKGRFTVSRDNSKNTLYLQMNSLRAEDTAVYYCVKGGYSYGDSFDFWGQGTLVTVSS
VL: B1 VL with I29V, D30R, I31N, K50D, S53D, S91G, T93S, V94T, I96W
notes: as for B1
B3: CD117-9 (antibody, human IgG1, kappa, V domains shown)
VH: EVQLLESGGGLVQPGGSLRLSCAASGFSFTNYAMSWVRQAPGKGLEWVSSISGSGGSTYYADSVKGRFTISRDNSKNTLYLQMNSLRAEDTAVYYCARGSGSYFGFDFWGQGTLVTVSS
VL: B1 VL with S28G, D30G, I31T, K50A, S56P, T93R, V94P, I96F
notes: as for B1
B4: SIGLEC-8-24 (antibody, human IgG1, kappa, V domains shown)
VH: EVQLLESGGGLVQPGGSLRLSCAASGFTFSSTAMSWVRQAPGKGLEWVSAISGTGGSTYYADSVKGRFTISRDNSKNTLYLQMNSLRAEDTAVYYCARESDYDYFGMDVWGQGTLVTVSS
VL: B1 VL with I29V, D30S, I31S, L33V, K50G, S56D, T93S, I96V
notes: tested as expressed and purified mAb
B5: SIGLEC-8-56 (antibody, human IgG1, kappa, V domains shown)
VH: B4 VH with F27L, T32S, T54Y, S100A, D101G, D103Y, F105Y
VL: B1 VL with S28K, D30T, I31S, K50A, Q55H, S56D, T93G, V94T, I96L
notes: as for B4
B6: SIGLEC-8-7 (antibody, human IgG1, kappa, V domains shown)
VH: EVQLLESGGGLVQPGGSLRLSCAASGFTFSNHAMAWVRQAPGKGLEWVSGISGSAASTYYADSVKGRFTISRDNSKNTLYLQMNSLRAEDTAVYYCARDLLALPYAFDIWGQGTLVTVSS
VL: B1 VL with I29T, D30S, I31S, N34S, K50A, A51V, S53T, T93S, I96L
notes: as for B4
B7: SIGLEC-8-8 (antibody, human IgG1, kappa, V domains shown)
VH: EVQLLESGGGLVQPGGSLRLSCAASGFTFNYYALSWVRQAPGKGLEWVSGISGSGGTTFYADSVKGRFTISRDNSKNTLYLQMNSLRAEDTAVYYCARRGGWYSFDIWGQGTLVTVSS
VL: B1 VL with S10T, S14Y, S28I, D30S, I31T, K50S, Y92F, T93S, V94A, I96D
notes: as for B4
B8: SIGLEC-8-10 (antibody, human IgG1, kappa, V domains shown)
VH: EVQLLESGGGLVQPGGSLRLSCAASGFTFNNYAMAWVRQAPGKGLEWVSAISGSGSSPYYADSVKGRFTISRDNSKNTLYLQMNSLRAEDTAVYYCARDQIVAMDVWGQGTLVTVSS
VL: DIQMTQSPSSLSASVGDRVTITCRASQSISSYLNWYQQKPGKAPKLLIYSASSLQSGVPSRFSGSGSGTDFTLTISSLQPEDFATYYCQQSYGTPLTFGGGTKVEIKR
notes: as for B4
B9: SIGLEC-8-54 (antibody, human IgG1, kappa, V domains shown)
VH: B8 VH
VL: B1 VL with A25G, D30S, I31S, K50D, T93R, V94T
notes: as for B4
B10: SIGLEC-8-19 (antibody, human IgG1, kappa, V domains shown)
VH: B4 VH with S30R, S31T, T32Y, A33D, T54G, E99D, D101S, D103R, Y104W, G106S
VL: B1 VL with S26G, D30S, I31T, K50G, S53K, S91T, T93R, V94T, I96L
notes: as for B4
B11: SIGLEC-8-32 (antibody, human IgG1, kappa, V domains shown)
VH: EVQLLESGGGLVQPGGSLRLSCAASGFTLSSYVMSWVRQAPGKGLEWVSAISGSGATTYYADSVKGRFTISRDNSKNTLYLQMNSLRAEDTAVYYCAREVAGIFDYWGQGTLVTVSS
VL: B1 VL with A25S, D30S, I31T, K50A, S53Y, T93D, V94T, I96L
notes: as for B4

These binders were tested against T1, mouse CD117 (assay: Carterra SPR, mouse CD117).
Protocol: (§1) To further evaluate the antibodies discovered during the screens, 21 clones were selected for detailed characterization and were analyzed for target binding kinetics by a Carterra SPR instrument. The binding kinetics of the anti-CD117 antibodies for human CD117, cynomolgus monkey CD117, and murine CD117 are shown in FIG. 29A-29B.
B1: no binding. B2: no binding. B3: no binding.

What follows are binders tested against T3, Sialic acid-binding immunoglobulin-like lectin 8 (SIGLEC-8), antigen of the Carterra SPR studies (UniProt Q9NYZ4 17-363, limits assumed) (assay: Carterra SPR kinetics, summary table).
T3 sequence (Q9NYZ4 17-363 limits assumed): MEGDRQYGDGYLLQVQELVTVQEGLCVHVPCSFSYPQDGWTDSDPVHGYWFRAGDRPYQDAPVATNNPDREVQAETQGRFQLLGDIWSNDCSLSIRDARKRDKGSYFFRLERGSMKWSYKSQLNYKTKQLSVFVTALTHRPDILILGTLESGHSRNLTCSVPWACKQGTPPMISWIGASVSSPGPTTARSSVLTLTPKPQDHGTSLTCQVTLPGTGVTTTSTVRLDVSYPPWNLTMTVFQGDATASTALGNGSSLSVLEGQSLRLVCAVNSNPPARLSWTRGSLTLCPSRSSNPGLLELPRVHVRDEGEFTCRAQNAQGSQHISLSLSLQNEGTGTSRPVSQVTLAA
How it was run: (§2)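 Binding kinetics of antibodies to SIGLEC-8 were measured by surface plasmon resonance on a Carterra instrument. The antibodies came from synthetic antibody libraries panned over four rounds with a bead-based strategy and screened by clonal ELISA. Selected clones were expressed and purified before testing. The read-outs are rate constants, dissociation constants or results from these kinetic runs.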
With B4 the koff was 0.000194 s⁻¹ and the kon was 236000 M⁻¹ s⁻¹. Work on B5 yielded a koff of 0.000156 s⁻¹ and a kon of 576000 M⁻¹ s⁻¹.

The binders below were run against T4, Cluster of differentiation 117 (CD117), antigen of epitope binning and ELISA (UniProt P10721 26-520, limits assumed) (assay: Carterra SPR, human CD117).
T4 construct: also called tyrosine-protein kinase KIT; mast/stem cell growth factor receptor (SCFR)
T4 sequence (P10721 26-520 limits assumed): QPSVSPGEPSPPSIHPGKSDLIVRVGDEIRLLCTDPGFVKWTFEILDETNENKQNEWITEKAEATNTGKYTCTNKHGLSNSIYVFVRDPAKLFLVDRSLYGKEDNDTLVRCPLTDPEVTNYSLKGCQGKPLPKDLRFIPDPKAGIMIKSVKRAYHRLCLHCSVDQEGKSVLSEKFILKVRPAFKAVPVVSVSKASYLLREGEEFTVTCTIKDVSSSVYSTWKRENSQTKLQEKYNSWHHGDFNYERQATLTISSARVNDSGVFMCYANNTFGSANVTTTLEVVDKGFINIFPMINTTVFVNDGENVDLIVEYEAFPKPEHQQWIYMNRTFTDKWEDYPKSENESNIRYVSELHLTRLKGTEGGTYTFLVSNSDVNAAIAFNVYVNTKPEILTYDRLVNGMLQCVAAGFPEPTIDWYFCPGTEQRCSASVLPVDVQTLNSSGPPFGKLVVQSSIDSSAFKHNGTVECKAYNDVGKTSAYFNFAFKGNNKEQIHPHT
Protocol: as §1
Binder B1 has a Kd of 187 nM, a koff of 0.101 s⁻¹ and a kon of 541000 M⁻¹ s⁻¹. B2 showed a Kd of 670 nM, a koff of 0.201 s⁻¹ and a kon of 300000 M⁻¹ s⁻¹. In the case of B3, the Kd is reported as 9.51 nM, the koff is reported as 0.0058 s⁻¹ and the kon is reported as 610000 M⁻¹ s⁻¹.

The binders below were run against T3, Sialic acid-binding immunoglobulin-like … (assay: Carterra SPR).
How it was run: as §2
B4 was tested, and the Kd was 0.822 nM. For B5, the Kd was 0.271 nM. Binder B6 has a Kd of 1.12 nM. B7 gave a Kd of 1.65 nM. For B8, the Kd was 3.17 nM. With B9 the Kd was 1.06 nM. B10 gave a Kd of 4.86 nM. Work on B11 yielded a Kd of 19.2 nM.

These binders were tested against T5, SIGLEC-2 (assay: SPR cross-reactivity table).
T5 construct: also called CD22
T5 sequence (chain, as listed by the source limits assumed): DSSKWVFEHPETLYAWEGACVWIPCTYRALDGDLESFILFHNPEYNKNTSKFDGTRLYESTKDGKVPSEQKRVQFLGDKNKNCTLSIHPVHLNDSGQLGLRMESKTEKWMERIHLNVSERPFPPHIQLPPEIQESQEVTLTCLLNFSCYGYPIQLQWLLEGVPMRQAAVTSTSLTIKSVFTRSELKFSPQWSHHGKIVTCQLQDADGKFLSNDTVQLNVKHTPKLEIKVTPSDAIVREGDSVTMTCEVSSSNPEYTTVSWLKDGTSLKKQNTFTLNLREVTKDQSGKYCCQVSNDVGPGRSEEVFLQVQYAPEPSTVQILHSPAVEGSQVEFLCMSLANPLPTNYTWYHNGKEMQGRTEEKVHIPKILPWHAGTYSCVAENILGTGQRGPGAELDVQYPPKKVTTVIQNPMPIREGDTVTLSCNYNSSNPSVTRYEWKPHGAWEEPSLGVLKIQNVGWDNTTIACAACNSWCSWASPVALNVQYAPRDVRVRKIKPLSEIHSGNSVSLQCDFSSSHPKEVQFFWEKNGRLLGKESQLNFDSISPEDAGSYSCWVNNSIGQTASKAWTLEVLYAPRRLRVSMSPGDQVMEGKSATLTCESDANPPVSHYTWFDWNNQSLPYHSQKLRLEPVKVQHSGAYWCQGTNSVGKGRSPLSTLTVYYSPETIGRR
How it was run: (§3)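 Purified antibodies against SIGLEC-8, first selected from synthetic libraries by four rounds of bead-based panning, were tested for cross-reactivity with related SIGLEC proteins by surface plasmon resonance on a Carterra instrument. Each protein tested has a dissociation constant or a binding result listed.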
For B5, the Kd was 43.2 nM. B6: no binding. For B7, the Kd was 4300 nM. In the case of B8, the Kd is reported as 755 nM. B9: no binding. B10: no binding. Work on B11 yielded a Kd of 128 nM.

What follows are binders tested against T6, SIGLEC-3 (assay: SPR cross-reactivity table).
T6 construct: also called CD33
T6 sequence (receptor, as listed by the source limits assumed): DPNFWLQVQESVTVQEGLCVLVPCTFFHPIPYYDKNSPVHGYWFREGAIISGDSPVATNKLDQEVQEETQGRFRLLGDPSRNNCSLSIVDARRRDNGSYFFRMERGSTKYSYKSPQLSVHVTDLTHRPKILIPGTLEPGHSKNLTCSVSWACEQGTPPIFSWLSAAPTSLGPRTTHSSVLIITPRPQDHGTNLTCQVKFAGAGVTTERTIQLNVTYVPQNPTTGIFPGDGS
How it was run: as §3
B4: no binding. B5 gave a Kd of 60.5 nM. B6: no binding. B7: no binding. B8: no binding. B9: no binding. B10: no binding.

The binders below were run against T7, SIGLEC-6 (assay: SPR cross-reactivity table).
T7 construct: also called OB-BP-1
T7 sequence (receptor, as listed by the source limits assumed): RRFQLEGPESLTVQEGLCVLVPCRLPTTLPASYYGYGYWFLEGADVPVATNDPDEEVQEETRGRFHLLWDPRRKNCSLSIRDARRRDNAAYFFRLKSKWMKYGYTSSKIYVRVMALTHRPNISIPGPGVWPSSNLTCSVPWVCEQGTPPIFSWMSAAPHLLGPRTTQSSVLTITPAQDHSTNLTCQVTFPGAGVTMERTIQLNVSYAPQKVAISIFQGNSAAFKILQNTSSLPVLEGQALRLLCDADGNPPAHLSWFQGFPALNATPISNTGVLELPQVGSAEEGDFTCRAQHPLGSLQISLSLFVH
How it was run: as §3
B4: no binding. B6: no binding. B8: no binding. With B9 the Kd was 12 nM. Work on B10 yielded a Kd of 1070 nM. Binder B11 has a Kd of 5.3 nM.

These binders were tested against T8, SIGLEC-7 (assay: SPR cross-reactivity table).
T8 construct: also called p75/AIRM1
T8 sequence (receptor, as listed by the source limits assumed): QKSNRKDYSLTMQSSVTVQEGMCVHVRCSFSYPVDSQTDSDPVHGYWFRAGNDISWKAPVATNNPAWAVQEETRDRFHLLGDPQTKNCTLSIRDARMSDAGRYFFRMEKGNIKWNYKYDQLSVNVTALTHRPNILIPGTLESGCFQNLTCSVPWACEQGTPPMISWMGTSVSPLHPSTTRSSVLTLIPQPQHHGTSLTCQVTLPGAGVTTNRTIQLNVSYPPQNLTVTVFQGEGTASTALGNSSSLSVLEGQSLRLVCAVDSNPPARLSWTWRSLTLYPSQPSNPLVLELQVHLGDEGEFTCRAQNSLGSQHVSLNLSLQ
How it was run: as §3
B4: no binding. Binder B5 has a Kd of 18 nM. B6: no binding. B7: no binding. B8: no binding. B9: no binding. B10: no binding. B11 showed a Kd of 17.4 nM.

Biological target: T2, SIGLEC-5
Assay: SPR cross-reactivity table
How it was run: as §3
B4 showed a Kd of 33.7 nM. B5 showed a Kd of 3.4 nM. B6 was tested, and the Kd was 123 nM. B7 was tested, and the Kd was 39.3 nM. B8: no binding. In the case of B9, the Kd is reported as 19.9 nM. Work on B10 yielded a Kd of 14.5 nM. Work on B11 yielded a Kd of 4.2 nM.

These binders were tested against T9, CD117 transiently expressed on Expi293 cells (UniProt P10721 26-976, limits assumed) (assay: FACS, MFI expressing / parental cells).
T9 construct: whole, on cells; Two cassettes are described (P2A mVenus and direct mVenus fusion); also called CD117 transient cells; the transient cell line
T9 sequence (P10721 26-976 limits assumed): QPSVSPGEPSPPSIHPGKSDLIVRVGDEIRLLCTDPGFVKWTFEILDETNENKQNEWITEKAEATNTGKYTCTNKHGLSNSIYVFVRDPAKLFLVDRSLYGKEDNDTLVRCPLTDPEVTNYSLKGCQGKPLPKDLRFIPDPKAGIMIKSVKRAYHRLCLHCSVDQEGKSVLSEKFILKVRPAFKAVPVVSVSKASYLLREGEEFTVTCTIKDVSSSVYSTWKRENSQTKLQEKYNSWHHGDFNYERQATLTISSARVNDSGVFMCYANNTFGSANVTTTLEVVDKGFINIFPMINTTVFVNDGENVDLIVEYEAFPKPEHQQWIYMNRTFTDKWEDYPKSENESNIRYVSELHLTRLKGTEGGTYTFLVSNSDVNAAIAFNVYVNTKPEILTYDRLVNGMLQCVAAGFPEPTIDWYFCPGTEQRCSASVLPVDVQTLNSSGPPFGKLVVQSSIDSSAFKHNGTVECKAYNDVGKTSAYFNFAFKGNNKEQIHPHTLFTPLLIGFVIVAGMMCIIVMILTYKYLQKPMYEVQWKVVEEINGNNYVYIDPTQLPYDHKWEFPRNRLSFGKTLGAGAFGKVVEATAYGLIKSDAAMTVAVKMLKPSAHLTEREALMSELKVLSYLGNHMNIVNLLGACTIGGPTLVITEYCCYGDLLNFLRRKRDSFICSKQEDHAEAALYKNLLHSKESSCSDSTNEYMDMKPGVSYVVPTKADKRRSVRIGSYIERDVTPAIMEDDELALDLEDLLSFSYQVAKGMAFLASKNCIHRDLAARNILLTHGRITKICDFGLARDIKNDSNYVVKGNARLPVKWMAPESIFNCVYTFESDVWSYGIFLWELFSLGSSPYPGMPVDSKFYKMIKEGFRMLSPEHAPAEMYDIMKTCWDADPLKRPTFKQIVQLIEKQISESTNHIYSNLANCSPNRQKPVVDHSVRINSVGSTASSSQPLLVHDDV
Protocol: (§4) The transient expression of CD117 was validated with a control antibody, Expi293 (FIGS. 17A-17B). Expi293, […], was transiently transfected with CD117 48-hours post-transfection. The secondary antibody used was APC Goat anti-human IgG (diluted 1:400). 100,000 cells per well were blocked with 1×PBS+0.5% BSA for 1 hour, stained with 100 μL of the primary antibody for 1 hour, and stained with the secondary antibody for one hour, all with 3× washes in between each staining.
For B1, the “MFI Ratio” value was 10.6. In the case of B2, the “MFI Ratio” value is reported as 21.3. B3 was tested, and the “MFI Ratio” value was 29.1.

These binders were tested against T10, cyno CD117 (Macaca fascicularis, UniProt A0A7N9CP24) (assay: Carterra SPR, cyno CD117).
T10 construct: antigen of the Carterra SPR kinetics; also called cynomolgus monkey CD117
T10 sequence (A0A7N9CP24 entry or part of it): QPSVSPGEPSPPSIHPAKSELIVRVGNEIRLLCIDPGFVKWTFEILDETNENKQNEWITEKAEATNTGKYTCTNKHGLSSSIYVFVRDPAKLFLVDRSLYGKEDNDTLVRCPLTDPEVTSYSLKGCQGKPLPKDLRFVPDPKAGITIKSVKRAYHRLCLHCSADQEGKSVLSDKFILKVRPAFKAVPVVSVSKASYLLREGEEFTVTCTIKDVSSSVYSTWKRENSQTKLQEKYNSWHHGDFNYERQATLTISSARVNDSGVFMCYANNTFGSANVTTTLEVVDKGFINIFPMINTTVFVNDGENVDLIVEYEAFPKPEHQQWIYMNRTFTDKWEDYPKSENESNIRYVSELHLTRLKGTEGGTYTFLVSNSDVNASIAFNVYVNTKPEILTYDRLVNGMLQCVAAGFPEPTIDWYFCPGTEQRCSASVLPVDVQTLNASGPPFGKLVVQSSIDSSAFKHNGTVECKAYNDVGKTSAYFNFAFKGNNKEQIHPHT
Protocol: as §1
B1 showed a Kd of 5190 nM, a koff of 0.201 s⁻¹ and a kon of 38700 M⁻¹ s⁻¹. In the case of B2, the Kd is reported as 2390 nM, the koff is reported as 0.211 s⁻¹ and the kon is reported as 88300 M⁻¹ s⁻¹. B3 was tested, and the Kd was 15.7 nM, the koff was 0.0108 s⁻¹ and the kon was 685000 M⁻¹ s⁻¹.

Each binder was assayed against T9, CD117 transiently expressed on Expi293 … (assay: FACS cell binding, Expi293 transiently expressing CD117).
Protocol: as §4
For B1, the EC50 was 1210 nM. For B2, the EC50 was 6.88 nM. B3 gave an EC50 of 1.39 nM.

What follows are binders tested against T11, SIGLEC-8 transiently expressed on cells (UniProt Q9NYZ4 17-499, limits assumed) (assay: cell binding titration, transient SIGLEC-8 line).
T11 construct: whole, on cells; Two cassettes are described (P2A mVenus and direct mVenus fusion); also called the transient line; pTT5-SIGLEC-8 P2A mVenus
T11 sequence (Q9NYZ4 17-499 limits assumed): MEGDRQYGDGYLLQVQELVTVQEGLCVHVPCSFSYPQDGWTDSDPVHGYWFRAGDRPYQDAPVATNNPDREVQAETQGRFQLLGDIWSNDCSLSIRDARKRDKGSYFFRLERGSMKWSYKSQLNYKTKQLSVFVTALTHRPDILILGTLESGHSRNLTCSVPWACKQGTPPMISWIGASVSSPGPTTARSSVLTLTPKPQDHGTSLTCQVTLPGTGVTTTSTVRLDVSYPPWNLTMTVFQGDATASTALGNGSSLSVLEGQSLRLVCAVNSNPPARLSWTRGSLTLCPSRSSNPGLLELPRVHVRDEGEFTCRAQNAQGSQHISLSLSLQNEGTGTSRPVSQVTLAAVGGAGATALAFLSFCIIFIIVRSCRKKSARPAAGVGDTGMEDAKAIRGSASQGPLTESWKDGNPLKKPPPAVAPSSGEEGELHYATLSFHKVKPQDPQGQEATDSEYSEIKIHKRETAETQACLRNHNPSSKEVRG
For B4, the EC50 was 1.05 nM. Binder B5 has an EC50 of 1.02 nM. B6 gave an EC50 of 0.813 nM. For B7, the EC50 was 1.3 nM. For B8, the EC50 was 1.09 nM. B9 gave an EC50 of 0.527 nM. B11 gave an EC50 of 3.81 nM.
